Reference: patent US11440938B2, “Stabilized minimal coiled-coil mimetics” (NEW YORK UNIVERSITY, priority 2015, dated 2022)
Where “and” joins values, the source holds several entries; their conditions need not be identical. Equal values may be shown once. Read-outs that look alike come from different tables or passages of the source. Bridges are numbered along the chain shown (N, C = ends). Where no end group is shown, it is not given here.

B1: NHR2: native GST-tagged NHR2 coiled-coil domain (482-551) of AML1-ETO, expressed in E. coli (protein, UniProt Q06455 482-551, looked up, fragment)
chain: ERAKMERTVAEAKRQAAEDALAVINQQEDSSESCWNCGRKASETCSGCNTARYCGSFCQHKDWEKHHHIC
modifications: NHR2 coiled-coil domain GST tag
notes: native GST-tagged NHR2 coiled-coil domain (482-551) of AML1-ETO, expressed in E. coli

Legend:
[1] = Circular dichroism spectroscopy of helical conformational stability; assay type: physicochemical; details: 50 mM aqueous KF, pH 7.4, 20 μM peptide
[2] = target: T1, fluorescein-labeled N2B peptide (NHR2-binding motif of E-proteins) (Homo sapiens, UniProt Q99081); details: Sun et al., Nature 500:93 (2013); read-out: KD with flu-N2B, literature reported; cited from earlier work
[3] = target: T1, fluorescein-labeled N2B peptide (NHR2-binding motif of E-proteins); test: Fluorescence polarization direct binding assay with fluorescein-labeled N2B peptide (flu-N2B); details: 100 nM flu-N2B, 25° C., 10 mM Tris 20 mM NaCl pH 7.4, 0.1% pluronic F-68, triplicate, listed as NHR2482-551, read-out: Kd (binding affinity to fluorescein-labeled N2B peptide)

Molecule	Helical character by CD (in words) [1]	Minimum at 222/208 (ratio of CD bands) [1]	|θ222| (CD ellipticity at 222 nm) [1]	Kd [2] [µM]	Kd [3]
AB-1: HBS-A helix joined to peptide B by a GGSSGG linker; N-terminal HBS constraint (SEQ ID NO:3) (XELXELEWRLGGSSGGLAERIARLR; not fully specified; HBS constraint; Hydrogen bond surrogate peptide AB-1; (1)..(1) Xaa at position 1 is pentenoic acid; (4)..(4) Xaa at position 4 is N-allylalanine)	weakly helical signature	0.73	8475	–	–
Ac-ELAELEWRL-NH2	nonhelical signatures	–	–	–	–
Ac-LWERIARLR-NH2 [B]	nonhelical signatures	–	–	–	–
ECAELEWRLGGSSGGLAERIARCR (disulfide 2-23; not fully specified (N-terminus, C-terminus)) [AB-3]	did not provide significant helical stabilization	0.62	9460	–	–
cyclo(GGSSGGELAELEWRLGGSNGGLAERIARLR (macrocyclic; Cyclic peptide AB-2; (1)..(1) Position 1 and 30 are linked by a peptide bond to form a cyclic peptide; (30)..(30) Position 1 and 30 are linked by a peptide bond to form a cyclic peptide)	minimal helicity	0.62	8950	–	–
B1	–	–	–	380 ± 18	356 µM and 363 µM
